These results are taken from patent publication US10562957B2, “Albumin-purification method comprising a nanofiltration step, solution, and composition for therapeutic use containing the same” (LABORATOIRE FRANCAIS DU FRACTIONNEMENT ET DES …, priority 2004, dated 2020).

Bounds are passed on as bounds.

This data set concerns the target von Willebrand factor (vWf) (Homo sapiens, UniProt P04275). Nature of the data set: Stabilisation of vWf by nanofiltered albumin: freeze-drying and dry heating at 80° C. for 72 hours. The conditions noted are these: preliminary tests: vWf solution with glycine and arginine, no albumin, dry heating 80° C. The data set is classed as physicochemical. As for the experimental part:
The power of the nanofiltered albumin to stabilise von Willebrand factor (vWf) was assessed using dry heating tests of vWf at 80° C. for 72 hours.
These solutions are then submitted to freeze-drying (45±3 hours) and dry heating as defined above. After heating, the addition of purified water for injection (PWI) to the dry residues reconstitutes solutions A11-A12. The following parameters are analysed: appearance of the solution, dissolution time, activity of vWf and multimeric profile, as measured by electrophoresis.

Regarding “vWf: von Willebrand factor solution stabilised with glycine and arginine, without albumin”, the “activity of vWf (vWf:Ag) compared to the non-heated vWf” value is given as above 82% and the multimeric profile result was “not maintained”.
